Source: patent publication US12698507B2, “Methods and compositions for conferring and/or enhancing herbicide tolerance using protoporphyrinogen IX oxidase of various cyanobacteria or variant thereof” (FarmHannong Co., Ltd., priority 2019, dated 2026)
Substitutions are numbered along the chain they refer to. Names may count otherwise.

B1: CyPPO18 R89A + V165S + V305M + F360I: variant of CyPPO18 PPO protein (SEQ ID NO: 3) (protein)
chain: MIEVDVAIVGGGLSGLSVAWRLQRSAPHYSGVLLEASDRLGGNITTQAAEGFVWELGPNSFAPTPALLQLIAEVGLHSELIRGDRHLPAYIYWRGELYPLEPTRPLALATSNLLSPWGKVRAALGALGFVPPYLGSGDESVDSFFRRHLGQEVAERLVAPFVSGSYAGDPQQLSAAAAFRRIAQLEKLGGSLIAGALRLRRQQPPQPKPPAQVQMRPGELGSFREGLAALPRAIAQQLKAPLHLQTPVEAITPEPKGGYLLRSGEQTWHARSVVLATPAYQSAELVAPFQPAIARALATIPYPTMACVVLAYPAGLGRSVRPGFGVLVPRGQGIRTLGTIWSSCLFPQRTPAGWQVFTSIIGGATDPDLASLREEAIVEQVQQDLTRLLDLPAAKARLLGMKVWRRAIPQYIVGYPQQWQQLTHALTQTPGLFLCSNYAEGVALGDRVEHGNRTAAAVAAYLAGGQS
modifications: Synthetic_PPO of Thermosynechococcus vulcanus NIES-2134 (BAY51976)
B2: CyPPO18 R89A + V165C + A167L + V305M + F360I: variant of CyPPO18 PPO protein (SEQ ID NO: 3) (protein)
chain: B1 chain with S165C, A167L
modifications: Synthetic_PPO of Thermosynechococcus vulcanus NIES-2134 (BAY51976)
B3: CyPPO19 R89A + V165S + F360M: variant of CyPPO19 PPO protein (SEQ ID NO: 1) (protein)
chain: MSEVDVAIVGGGLSGLSLAWRLQQSAPQYSVVLLEASDRLGGNITTQTAEGFVWELGPNSFAPTPALLQLIAEVGLQSELIRGDRHLPAYIYWRGQLYPLQPTRPLALATSNLLSPWGKVRAALGALGFVPPYLGSGDESVNSFFRRHLGQEVAERLVAPFVSGSYAGDPQQLSAAAAFRRIAQLEKLGGGLIAGALHLRRQQAPKPKPPTSVQMRPGELGSFKEGLAALPRAIAQQLKAPIHLQTPVQEITPDPKGGYLLRSGEQTWRARSVVLATPAYQTAELVAPFQPAIARVLATIPYPTVACVVLAYPAGLGRSVRPGFGVLIPRSQGIRTLGTIWSSCLFPQRTPAGWQVFTSMIGGATDPDLASLSEEAIVQQVQQDLNRLLDLPAAKARLLGMKVWRRAIPQYMVGYPEQWQQVTHALSQTPGLFLCSNYAEGVALGDRVEHGNRTAAAVAAYLSGGQP
modifications: Synthetic_PPO of Thermosynechococcus elongatus PKUAC-SCTE542 (comprising GenBank No. CP032152.1)
B4: CyPPO19 R89A + V305M + F360V: variant of CyPPO19 PPO protein (SEQ ID NO: 1) (protein)
chain: B3 chain with S165V, V305M, M360V
modifications: Synthetic_PPO of Thermosynechococcus elongatus PKUAC-SCTE542 (comprising GenBank No. CP032152.1)
B5: CyPPO19 R89A + A167L + F360T: variant of CyPPO19 PPO protein (SEQ ID NO: 1) (protein)
chain: B3 chain with S165V, A167L, M360T
modifications: Synthetic_PPO of Thermosynechococcus elongatus PKUAC-SCTE542 (comprising GenBank No. CP032152.1)
B6: CyPPO19 R89A + V305M + F360I: variant of CyPPO19 PPO protein (SEQ ID NO: 1) (protein)
chain: B3 chain with S165V, V305M, M360I
modifications: Synthetic_PPO of Thermosynechococcus elongatus PKUAC-SCTE542 (comprising GenBank No. CP032152.1)
B7: CyPPO19 R89A + A167C + F360L: variant of CyPPO19 PPO protein (SEQ ID NO: 1) (protein)
chain: B3 chain with S165V, A167C, M360L
modifications: Synthetic_PPO of Thermosynechococcus elongatus PKUAC-SCTE542 (comprising GenBank No. CP032152.1)
B8: CyPPO19 R89A + V165C + F360V: variant of CyPPO19 PPO protein (SEQ ID NO: 1) (protein)
chain: B3 chain with S165C, M360V
modifications: Synthetic_PPO of Thermosynechococcus elongatus PKUAC-SCTE542 (comprising GenBank No. CP032152.1)
B9: CyPPO19 R89A + A167I + F360V: variant of CyPPO19 PPO protein (SEQ ID NO: 1) (protein)
chain: B3 chain with S165V, A167I, M360V
modifications: Synthetic_PPO of Thermosynechococcus elongatus PKUAC-SCTE542 (comprising GenBank No. CP032152.1)

The molecules below were run on PPO-deficient BT3 E. coli (ΔPPO) (assay: PPO-inhibiting herbicide tolerance test of PPO variants in E. coli (growth on herbicide-containing LB agar)). Conditions: CyPPO18 variants in BT3 (ΔPPO) E. coli; LB agar with 0 to 2,000 μM herbicide, 37° C., dark, 16-20 hours.
Assay type: cell-based
Procedure, shortened: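 Tolerance was scored against wild-type enzyme: '−' for equal growth, one '+' per 10-fold gain, up to '+++++'. ΔPPO BT3 cells carrying variant plasmids, spotted as a 10-fold dilution series from OD600=0.5, grew 16-20 h at 37° C. in the dark on ampicillin LB agar containing 0 to 2,000 μM herbicide.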
B1 was tested, and the “tolerance level relative to wild type, Carfentrazone” value was “++ (‘+’ per each 10-fold resistance)”, the “tolerance level relative to wild type, Flumioxazin” value was “+++++ (until ‘+++++’ as maximal resistance)” and the “tolerance level relative to wild type, Fomesafen” value was “+++++ (until ‘+++++’ as maximal resistance)”. For the same molecule, the “tolerance level relative to wild type, Oxyfluorfen” value was “++ (‘+’ per each 10-fold resistance)”, the “tolerance level relative to wild type, Saflufenacil” value was “+++++ (until ‘+++++’ as maximal resistance)” and the “tolerance level relative to wild type, Sulfentrazone” value was “+++++ (until ‘+++++’ as maximal resistance)”. The “tolerance level relative to wild type, Tiafenacil” value was “+++++ (until ‘+++++’ as maximal resistance)”.
With B2 the “tolerance level relative to wild type, Carfentrazone” value was “++ (‘+’ per each 10-fold resistance)”, the “tolerance level relative to wild type, Flumioxazin” value was “+++++ (until ‘+++++’ as maximal resistance)” and the “tolerance level relative to wild type, Fomesafen” value was “+++++ (until ‘+++++’ as maximal resistance)”. For the same molecule, the “tolerance level relative to wild type, Oxyfluorfen” value was “++ (‘+’ per each 10-fold resistance)”, the “tolerance level relative to wild type, Saflufenacil” value was “+++++ (until ‘+++++’ as maximal resistance)” and the “tolerance level relative to wild type, Sulfentrazone” value was “+++++ (until ‘+++++’ as maximal resistance)”. For the same molecule, the “tolerance level relative to wild type, Tiafenacil” value was “+++++ (until ‘+++++’ as maximal resistance)”.

Same assay, conditions: CyPPO19 variants in BT3 (ΔPPO) E. coli; LB agar with 0 to 2,000 μM herbicide, 37° C., dark, 16-20 hours
With B3 the “tolerance level relative to wild type, Carfentrazone” value was “+ (‘+’ per each 10-fold resistance)”, the “tolerance level relative to wild type, Flumioxazin” value was “++++ (‘+’ per each 10-fold resistance)” and the “tolerance level relative to wild type, Fomesafen” value was “+++ (‘+’ per each 10-fold resistance)”. The “tolerance level relative to wild type, Oxyfluorfen” value was “+++ (‘+’ per each 10-fold resistance)”, the “tolerance level relative to wild type, Saflufenacil” value was “++++ (‘+’ per each 10-fold resistance)” and the “tolerance level relative to wild type, Sulfentrazone” value was “+++ (‘+’ per each 10-fold resistance)”. For the same molecule, the “tolerance level relative to wild type, Tiafenacil” value was “++++ (‘+’ per each 10-fold resistance)”.
With B4 the “tolerance level relative to wild type, Carfentrazone” value was “+ (‘+’ per each 10-fold resistance)”, the “tolerance level relative to wild type, Flumioxazin” value was “+++ (‘+’ per each 10-fold resistance)” and the “tolerance level relative to wild type, Fomesafen” value was “+ (‘+’ per each 10-fold resistance)”. The “tolerance level relative to wild type, Oxyfluorfen” value was “+ (‘+’ per each 10-fold resistance)”, the “tolerance level relative to wild type, Saflufenacil” value was “+++ (‘+’ per each 10-fold resistance)” and the “tolerance level relative to wild type, Sulfentrazone” value was “++ (‘+’ per each 10-fold resistance)”. For the same molecule, the “tolerance level relative to wild type, Tiafenacil” value was “+++ (‘+’ per each 10-fold resistance)”.
With B5 the “tolerance level relative to wild type, Carfentrazone” value was “++ (‘+’ per each 10-fold resistance)”, the “tolerance level relative to wild type, Flumioxazin” value was “++++ (‘+’ per each 10-fold resistance)” and the “tolerance level relative to wild type, Fomesafen” value was “++ (‘+’ per each 10-fold resistance)”. The “tolerance level relative to wild type, Oxyfluorfen” value was “++ (‘+’ per each 10-fold resistance)”, the “tolerance level relative to wild type, Saflufenacil” value was “++++ (‘+’ per each 10-fold resistance)” and the “tolerance level relative to wild type, Sulfentrazone” value was “+++ (‘+’ per each 10-fold resistance)”. The “tolerance level relative to wild type, Tiafenacil” value was “++++ (‘+’ per each 10-fold resistance)”.
B6 was tested, and the “tolerance level relative to wild type, Carfentrazone” value was “+ (‘+’ per each 10-fold resistance)”, the “tolerance level relative to wild type, Flumioxazin” value was “+++ (‘+’ per each 10-fold resistance)” and the “tolerance level relative to wild type, Fomesafen” value was “+ (‘+’ per each 10-fold resistance)”. For the same molecule, the “tolerance level relative to wild type, Oxyfluorfen” value was “+ (‘+’ per each 10-fold resistance)”, the “tolerance level relative to wild type, Saflufenacil” value was “+++ (‘+’ per each 10-fold resistance)” and the “tolerance level relative to wild type, Sulfentrazone” value was “++ (‘+’ per each 10-fold resistance)”. The “tolerance level relative to wild type, Tiafenacil” value was “+++ (‘+’ per each 10-fold resistance)”.
For B7, the “tolerance level relative to wild type, Carfentrazone” value was “++ (‘+’ per each 10-fold resistance)”, the “tolerance level relative to wild type, Flumioxazin” value was “++++ (‘+’ per each 10-fold resistance)” and the “tolerance level relative to wild type, Fomesafen” value was “++ (‘+’ per each 10-fold resistance)”. For the same molecule, the “tolerance level relative to wild type, Oxyfluorfen” value was “+++ (‘+’ per each 10-fold resistance)”, the “tolerance level relative to wild type, Saflufenacil” value was “++++ (‘+’ per each 10-fold resistance)” and the “tolerance level relative to wild type, Sulfentrazone” value was “++++ (‘+’ per each 10-fold resistance)”. The “tolerance level relative to wild type, Tiafenacil” value was “++++ (‘+’ per each 10-fold resistance)”.
B8 was tested, and the “tolerance level relative to wild type, Carfentrazone” value was “+ (‘+’ per each 10-fold resistance)”, the “tolerance level relative to wild type, Flumioxazin” value was “++++ (‘+’ per each 10-fold resistance)” and the “tolerance level relative to wild type, Fomesafen” value was “+ (‘+’ per each 10-fold resistance)”. For the same molecule, the “tolerance level relative to wild type, Oxyfluorfen” value was “+ (‘+’ per each 10-fold resistance)”, the “tolerance level relative to wild type, Saflufenacil” value was “++++ (‘+’ per each 10-fold resistance)” and the “tolerance level relative to wild type, Sulfentrazone” value was “+++ (‘+’ per each 10-fold resistance)”. The “tolerance level relative to wild type, Tiafenacil” value was “++++ (‘+’ per each 10-fold resistance)”.
B9 was tested, and the “tolerance level relative to wild type, Carfentrazone” value was “+ (‘+’ per each 10-fold resistance)”, the “tolerance level relative to wild type, Flumioxazin” value was “+++++ (until ‘+++++’ as maximal resistance)” and the “tolerance level relative to wild type, Fomesafen” value was “+++ (‘+’ per each 10-fold resistance)”. For the same molecule, the “tolerance level relative to wild type, Oxyfluorfen” value was “+++ (‘+’ per each 10-fold resistance)”, the “tolerance level relative to wild type, Saflufenacil” value was “+++++ (until ‘+++++’ as maximal resistance)” and the “tolerance level relative to wild type, Sulfentrazone” value was “+++++ (until ‘+++++’ as maximal resistance)”. The “tolerance level relative to wild type, Tiafenacil” value was “+++++ (until ‘+++++’ as maximal resistance)”.
